Assay results: US8791061B2, “Peptides for treating and preventing immune-related disorders, including treating and preventing infection by modulating innate immunity” (Soligenix, Inc., priority 2005, dated 2014)
“Also recorded” adds a separate entry of the source. Where no end group is shown, it is not given here. [ ]: non-standard residue; d: D form. Orn = NCCC[C@H](N)C(=O)O

Each substance was assayed on S. aureus 25923 (assay: Non-antimicrobial activity, WST-1 colorimetric bacterial viability assay). Conditions: peptide 200 μM, 2 hours growth, compared with erythromycin 120 μg/ml.
Format: cell-based
Procedure: Bacteria (S. aureus 25923) were seeded into wells containing peptide (200 μM), vehicle (Tris), or antibiotic (erythromycin; 120 μg/ml). The bacteria were allowed to grow for 2 hours. Thereafter, bacterial viability was determined utilizing a WST-1 colorimetric viability assay (catalogue number 1 644 807; Roche Diagnostics). DMEM and DMEM+WST-1 were included as background controls.

Substance | antimicrobial activity (bacterial viability)
47 (KPRAVP; IMMUNOLOGICAL PEPTIDE) [compound 47] | lack of activity; also recorded: lacked antimicrobial activity
1 (KSRIVP; IMMUNOLOGICAL PEPTIDE) [compound 1] | lacked antimicrobial activity
5 (RIVPA; IMMUNOLOGICAL PEPTIDE) [compound 5] | lack of activity; also recorded: lacked antimicrobial activity

The substances below were run on S. aureus 25923 (assay: In vivo protection, mice infected IP with S. aureus, peptide after infection). Conditions: peptide IP 4 hours after infection, 9-24 mg/kg depending on peptide, 24 hours post-infection, vs control.
Procedure: Mice were infected with S. aureus 25923 via intraperitoneal (IP) injection. Four hours later, the peptide of SEQ ID NOs:1, 4, 5, 6, 45, and 47 were administered at 12 mg/kg and 24 mg/kg for SEQ. ID. NO. 1 (FIGS. 2A and 2B), 9.6 mg/kg for SEQ. ID. NO. 5 (FIG. 2C), 13 mg/kg for SEQ. ID. NO. 47 (FIG. 2D), 12 mg/kg for SEQ. ID. NO. 4 (FIG. 2E), 9 mg/kg for SEQ. ID. NO. 6 (FIG. 2F), and 13 mg/kg for SEQ. ID. NO. 45 (FIG. 2G), via IP injection. Twenty-four hours post-infection, surviving animals were sacrificed, and intraperitoneal lavage fluid was plated to determine residual bacterial counts (# colony forming units per ml (CFU/ml)) in the presence and absence of peptide treatment.
Dead animals were assigned the highest bacterial count of any animal in the study.

Substance | protection (residual bacterial counts CFU/ml in intraperitoneal lavage fluid)
47 (KPRAVP; IMMUNOLOGICAL PEPTIDE) [compound 47] | clearly demonstrated protection
1 (KSRIVP; IMMUNOLOGICAL PEPTIDE) [compound 1] | clearly demonstrated protection
4 (SRIVP; IMMUNOLOGICAL PEPTIDE) [compound 4] | clearly demonstrated protection
6 (KIVPA; IMMUNOLOGICAL PEPTIDE) [compound 6] | clearly demonstrated protection
5 (RIVPA; IMMUNOLOGICAL PEPTIDE) [compound 5] | clearly demonstrated protection
45 (KPARVPS; IMMUNOLOGICAL PEPTIDE) [compound 45] | clearly demonstrated protection

The substances below were run on S. aureus 25923 (assay: Prophylactic in vivo protection, peptide before IP S. aureus infection of mice). Conditions: mice; peptide IP 24 hours prior to infection, 12 mg/kg (SEQ 1), 11.5 mg/kg (SEQ 5); 24 hours post-infection.
Procedure: Twenty-four hours prior to infection, peptide was administered at 12 mg/kg (SEQ. ID. NO. 1, FIG. 3A) and 11.5 mg/kg (SEQ. ID. No. 5, FIG. 3B), via IP injection. Mice were then infected with S. aureus 25923 via IP injection. Twenty-four hours post-infection, surviving animals were sacrificed and intraperitoneal lavage fluid was plated to determine residual bacterial counts (# colony forming units per ml (CFU/ml)) in the presence and absence of peptide treatment.
Dead animals were assigned the highest bacterial count of any animal in the study. The peptides of SEQ. ID.

Substance | protection (residual bacterial counts CFU/ml in intraperitoneal lavage fluid)
1 (KSRIVP; IMMUNOLOGICAL PEPTIDE) [compound 1] | clearly demonstrated protection
5 (RIVPA; IMMUNOLOGICAL PEPTIDE) [compound 5] | clearly demonstrated protection

Same assay, conditions: prophylactic peptide IP; control 2 mice dead

Substance | mouse dead (peptide treatment)
1 (KSRIVP; IMMUNOLOGICAL PEPTIDE) [compound 1] | 0
5 (RIVPA; IMMUNOLOGICAL PEPTIDE) [compound 5] | 0

The substances below were run against T1, DPPIV (Mus musculus, UniProt P28843) (assay: Plasma DPPIV activity assay with mouse blood). Conditions: peptide 0.82 mM in mouse blood, 2 h at 37° C.; relative to saline control set to 100%.
T1 construct: The plasma was transferred to a 96-well assay plate for the DPPIV assay; from tissue; host or cells: pooled heparinized whole blood of ICR mice; plasma isolated after incubation
Format: biochemical
Procedure: Mouse blood was obtained by cardiac puncture from ICR mice and collected in heparinized blood collection tubes. Blood from several mice was pooled and aliquoted into […]. The peptide was dissolved in acetate buffered saline, pH 5.5, to a concentration of 9 mM. Of this stock solution 30 μL were added to 300 μL of blood and mixed by resuspension (concentration in blood 0.82 mM). For the control, 30 μL of blank acetate buffered saline was added to 300 μL of blood. Each peptide group was prepared in triplicate, whereas the control was prepared in six replicates. The samples were incubated at 37° C. in closed microtubes for two hours. After incubation the plasma was isolated from the samples by centrifugation at 4000 rcf. The plasma was transferred to a 96-well assay plate for the DPPIV assay. The assay was started by adding 5 μL of the DPPIV substrate gly-pro-p-nitroanilide (16 mM in de-ionized water) to 95 μl of plasma (concentration in plasma 0.8 mM) and the increase in UV absorbance (405 nm) was monitored over a 20 min time period. The rate of the production of p-nitroaniline by enzymatic cleavage of gly-pro-p-nitroanilide was taken as the activity of DPPIV (Durinx C et al., (2001) “Reference values for plasma dipeptidyl-peptidase IV activity and their association with other laboratory parameters”. Clin Chem Lab Med. 39(2):155-9.)
The effect of the peptides on the activity of DPPIV was observed. Results are presented as normalized, averaged % activity relative to saline control (set to 100%). Anything less than 100% activity represents a reduction in DPPIV activity.
In one aspect of the invention, a reduction by of DPPIV activity by about, or in one embodiment, at least, 25% (i.e. to about 75%+/−5%) was deemed to be active. A person skilled in the art would appreciate that the desired level of activity may vary depending on the use of the peptides.

T1 sequence (P28843 37-760 limits assumed): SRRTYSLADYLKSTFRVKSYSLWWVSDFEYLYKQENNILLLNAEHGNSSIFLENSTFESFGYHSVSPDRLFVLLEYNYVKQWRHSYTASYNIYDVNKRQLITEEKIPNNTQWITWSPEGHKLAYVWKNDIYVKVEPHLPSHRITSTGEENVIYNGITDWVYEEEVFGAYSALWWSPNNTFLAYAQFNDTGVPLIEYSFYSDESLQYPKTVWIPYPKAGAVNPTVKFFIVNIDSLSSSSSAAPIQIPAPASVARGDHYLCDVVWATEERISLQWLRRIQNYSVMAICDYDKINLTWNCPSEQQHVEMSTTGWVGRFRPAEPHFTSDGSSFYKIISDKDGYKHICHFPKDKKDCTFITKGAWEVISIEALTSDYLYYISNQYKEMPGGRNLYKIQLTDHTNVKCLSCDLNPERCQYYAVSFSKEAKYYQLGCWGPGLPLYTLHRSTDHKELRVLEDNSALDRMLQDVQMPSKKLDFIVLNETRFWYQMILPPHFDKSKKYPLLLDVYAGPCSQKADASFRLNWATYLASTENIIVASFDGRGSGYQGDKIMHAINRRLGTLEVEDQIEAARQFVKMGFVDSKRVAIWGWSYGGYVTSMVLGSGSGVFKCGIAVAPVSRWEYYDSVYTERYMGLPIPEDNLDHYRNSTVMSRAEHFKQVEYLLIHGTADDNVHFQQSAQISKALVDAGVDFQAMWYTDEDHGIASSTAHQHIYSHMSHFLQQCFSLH

Substance | % DPPIV Activity (Saline)
23 (RIVPS-NH2) [compound 23] | 62%
82 (KPRP-NH2) [compound 82] | 52%
54 (RIVPAIPVSLL-NH2) [compound 54] | 4%
18 (RIVPGGA-NH2) [compound 18] | 65%
73 (SPVIRH-NH2) [compound 73] | 66%
87 (Arg-Arg-Pro-NH2) [compound 87] | 72%
80 (KVIPS-NH2) [compound 80] | 30%
51 (Arg-Val-Pro-NH2) [compound 51] | 70%
84 ([Orn]-Val-Pro-NH2; N-terminus assumed; SMILES CC(C)[C@H](NC(=O)[C@@H](N)CCCN)C(=O)N1CCC[C@H]1C(N)=O) [compound 84] | 79%
71 (RIWPA-NH2) [compound 71] | 78%
62 ([code r][code r]VP-NH2) [compound 62] | 51%
12 (RRIVPA; IMMUNOLOGICAL PEPTIDE) [compound 12] | 61%
22 (RIVPG-NH2) [compound 22] | 61%
38 (HIVPA-NH2) [compound 38] | 47%
47 (KPRAVP; IMMUNOLOGICAL PEPTIDE) [compound 47] | 52%
88 (Gly-Val-Pro-NH2) [compound 88] | 69%
75 (RIEPA; IMMUNOLOGICAL PEPTIDE) [compound 75] | 79%
37 (RLVPA-NH2) [compound 37] | 39%
8 (RVPA; IMMUNOLOGICAL PEPTIDE) [compound 8] | 64%
40 (ARVPA-NH2) [compound 40] | 68%
61 (RIVPAC-NH2) [compound 61] | 52%
1 (KSRIVP; IMMUNOLOGICAL PEPTIDE) [compound 1] | 76%

Substance | % DPPIV Activity (Saline)
70 (RIHPA-NH2) [compound 70] | 37%
3 (SRIVPA; IMMUNOLOGICAL PEPTIDE) [compound 3] | 60%
28 (RIIPA-NH2) [compound 28] | 20%
9 (RIPA; IMMUNOLOGICAL PEPTIDE) [compound 9] | 51%
26 (RIPVA-NH2) [compound 26] | −4%
74 (CPVIRH-NH2) [compound 74] | 45%
49 (IRVP-NH2) [compound 49] | 56%
4 (SRIVP; IMMUNOLOGICAL PEPTIDE) [compound 4] | 64%
89 (Lys-His-Pro-NH2) [compound 89] | 72%
83 (Arg-Ile-Pro-NH2) [compound 83] | 47%
27 (RVIPA-NH2) [compound 27] | 67%
64 (RIVPPA-NH2) [compound 64] | 74%
16 (RIPPA-NH2) [compound 16] | 66%
6 (KIVPA; IMMUNOLOGICAL PEPTIDE) [compound 6] | 64%
17 (RIVPP-NH2) [compound 17] | 82%
72 (RIVPW-NH2) [compound 72] | 71%
52 (PSVPGS-NH2) [compound 52] | 74%
50 (RVPS-NH2) [compound 50] | 59%
13 (RKVPA-NH2) [compound 13] | 50%
76 (RIVPE-NH2) [compound 76] | 69%
86 (Lys-Val-Pro-NH2) [compound 86] | 49%
25 (RHVPA-NH2) [compound 25] | 38%

Substance | % DPPIV Activity (Saline)
53 (GLKHPS-NH2) [compound 53] | 68%
78 (RSVPA-NH2) [compound 78] | 75%
77 (RIVPH-NH2) [compound 77] | 53%
65 (RIGPA-NH2) [compound 65] | 77%
19 (GGIVPA-NH2) [compound 19] | 70%
5 (RIVPA; IMMUNOLOGICAL PEPTIDE) [compound 5] | 66%
20 (GIVPA-NH2) [compound 20] | 73%
35 (RIVPF-NH2) [compound 35] | 77%
45 (KPARVPS; IMMUNOLOGICAL PEPTIDE) [compound 45] | 27%
30 (APVIR-NH2) [compound 30] | 36%
46 (RVPSLL-NH2) [compound 46] | 70%
21 (RGVPA-NH2) [compound 21] | 64%
24 (RIVPL-NH2) [compound 24] | 74%
15 (RPVPA-NH2) [compound 15] | 27%
14 (RIVPK-NH2) [compound 14] | 67%
90 (RIVPA[dY]-NH2) [compound 90] | 59%
41 (IRVPA-NH2) [compound 41] | 49%
29 (AVPIR-NH2) [compound 29] | 0%
11 (RAVPA; IMMUNOLOGICAL PEPTIDE) [compound 11] | 39%
81 (KVVPS-NH2) [compound 81] | 57%
43 (SIVPA-NH2) [compound 43] | 80%
85 (Ser-Val-Pro-NH2) [compound 85] | 71%
